B1: Hairpin Ribozyme (parent)
chain: GUCCUCUUUCACGUGCGCGUGAAAGAGAGAAGUGAACCAGAGAAACACACGUUGUGGUAUAUUACCUGGUA

In this data set the parent is B1. As to the kind of experiment: self-cleavage, relative activity (ratio to wild type); higher = more cleavage; co-transcriptional.
As for C65G A71C, the self-cleavage was determined as 0.697.
Turning to C65G A71G, the self-cleavage was found to be 0.187.
As for U62C U63C, the figure is 0.168; as for U62C U63A, 0.21; as for A59G A71C, 0.444.
With G57U U70G, the self-cleavage is 0.225.
For C66A G68A the value was 0.126; for A59U U67G, 0.143; for G56U A64G, 0.0832.
With A59G C66U, the self-cleavage is 0.0625.
As for G57C U67G, the figure is 0.123.
For G57C U67C the value was 0.114; for A59G C65G, 0.247; for A59G C65A, 0.155.
As for U58A C65A, the figure is 0.503.
For the variant U58A C65U, the self-cleavage stood at 0.203.
For G57U U62A the value was 0.0927; for G56A G69A, 0.148; for G56U C66G, 0.22.
In the case of G56U C66U, the self-cleavage was 0.0775.
As for U58G C66A, the figure is 0.281; as for U58G C66U, 0.403.
For U60G U63C the value was 0.171; for A59U C66G, 0.185; for A59U C66A, 0.128.
U58C C65U: the self-cleavage was found to be 0.55.
For G56A U63G, the self-cleavage was found to be 0.0781.
As for G56A U63C, the figure is 0.286.
For A59U G68U the value was 0.188; for A59U G68A, 0.231.
For U60G U62C the value was 0.244.
U60G U62G: the self-cleavage was 0.222.
As for A61U U63A, the figure is 0.123; as for U58A U62A, 0.0926.
As for A61G A64C, the figure is 0.109; as for A64U G69A, 0.115.
With U62G A71C, the self-cleavage was 0.281.
As for U62G A71G, the figure is 0.143.
For A59U U63C the value was 0.12.
For G57C C66G the value was 0.113.
With A64U C66A, the self-cleavage was 0.156.
As for A64U C66G, the figure is 0.069.
As for U55G U58C, the figure is 0.651; as for G56U A59C, 0.135; as for G56U A59U, 0.171.
For A59C U70A the value was 0.112; for U60C U63G, 0.136.
For the variant A59G A64U, the self-cleavage worked out at 0.181.
As for C65A A71C, the figure is 1.07; as for A64G U70A, 0.597.
For A64G U70G the value was 0.47.
As for U58G A64U, the figure is 0.218.
G56A A61C: the self-cleavage worked out at 0.112.
Regarding G56A A61G, the self-cleavage is 0.2.
As for A61U A71U, the figure is 0.171.
For U63A G69A the value was 0.153.
For G56U G69C the value was 0.124.
In the case of G56U G69U, the self-cleavage is 0.207.
For G56U G69A the value was 0.114; for G56U A71G, 0.127; for U58G U63C, 0.271.
With U60A A64G, the self-cleavage turned out to be 0.353.
As for U60A A64U, the figure is 0.0988; as for U60A A64C, 0.206; as for U58G G69A, 0.292.
U58G G69C: the self-cleavage turned out to be 0.142.
Turning to U55G G69U, the self-cleavage came to 0.25.
For U60C U70C the value was 1.28.
As for U60C U70G, the figure is 1.03; as for A64G G69U, 0.116; as for U62A G68U, 0.28.
For A64C G68C the value was 0.273.
Take G57C G68U: the self-cleavage was 0.172.
As for G56A C66A, the figure is 0.0948; as for A59G G68C, 0.144.
As for A64C A71G, the figure is 0.266.
For A64U C65G the value was 0.188.
Take U58G U60A: the self-cleavage turned out to be 0.714.
For U58G U60G the value was 0.731.
U63G A64C: the self-cleavage was 0.191.
As for U63G A64U, the figure is 0.157.
On to U58G A59G, for which the self-cleavage was found to be 0.143.
As for A64C C66G, the figure is 0.084; as for A64C C66U, 0.27; as for A64C C66A, 0.0503.
Consider C65U G68A, for which the self-cleavage was 0.249.
For A59C A71C the value was 0.304; for A64U G68C, 0.213; for A59C U60G, 0.274.
As for A59C U60A, the figure is 0.223; as for U58C G69A, 0.421.
As for U58C G69C, the figure is 0.259.
As to A61C U63A, the self-cleavage came to 0.177.
For U60C C65U the value was 0.909; for U60C C65G, 0.531.
As for G56U U70C, the figure is 0.271; as for G56U U70A, 0.145.
In the case of U55G G68U, the self-cleavage came out at 0.139.
For U63G U70C, the self-cleavage was 0.161.
On to U63G U70G, for which the self-cleavage was 0.182.
As to A59G U62A, the self-cleavage stood at 0.144.
Regarding U63G U67A, the self-cleavage turned out to be 0.159.
Regarding G57A U70C, the self-cleavage stood at 0.274.
As to G56C A61C, the self-cleavage is 0.109.
With U62C C66G, the self-cleavage worked out at 0.213.
As for U62C C66U, the figure is 0.189; as for A61U U70G, 0.261.
As for A61U U70C, the figure is 0.231.
As for G56A U70G, the self-cleavage worked out at 0.254.
For G57C A64U the value was 0.095; for A59U G69A, 0.182; for A59U G69C, 0.323.
As for A59U G69U, the figure is 0.191.
In the case of A64C, the self-cleavage was determined as 0.174.
As for A64U, the figure is 0.181; as for A64G, 0.544.
Regarding G57A U62G, the self-cleavage was 0.273.
For U63G G69C the value was 0.138; for G57C A61C, 0.236; for C66G G69C, 0.145.
Consider C66G G69U, for which the self-cleavage worked out at 0.0961.
Take A59C C66U: the self-cleavage stood at 0.107.
For C66A A71U the value was 0.184; for C66A A71C, 0.445; for U58C G68C, 0.243.
As for U55G U67G, the figure is 0.233; as for G57C, 0.166; as for G57U, 0.273.
For G57A the value was 0.183; for G56C C65U, 0.16.
Take G56C C65G: the self-cleavage was determined as 0.0604.
On to U60A G68A, for which the self-cleavage was determined as 0.298.
As for A61C A71G, the figure is 0.286; as for C65U U70C, 0.111; as for C65U U70G, 0.148.
As for U63A C65G, the figure is 0.173; as for G57U A64U, 0.173; as for G57U A64G, 0.202.
For G57U A64C the value was 0.139.
Consider U62C G69A, for which the self-cleavage amounted to 0.112.
As for A61U C66G, the figure is 0.233; as for G57U C65G, 0.134.
For U58A the value was 0.742; for U58C, 0.994.
For U58G the value was 0.788.
As for G56A A59C, the self-cleavage was found to be 0.169.
For U58G U70C the value was 0.84; for A59C G68C, 0.227; for G57C U60A, 0.14.
As for G57C U60G, the figure is 0.178; as for U63C G69U, 0.183.
For U63C G69C the value was 0.28; for A61G C65A, 0.159; for A61G C65G, 0.303.
As to U58C U70C, the self-cleavage was determined as 0.945.
For A59C A61U, the self-cleavage came to 0.284.
As for G57A U60A, the figure is 0.152; as for U60C A61C, 0.264.
In the case of U62A C65U, the self-cleavage stood at 0.204.
For U62A C65A the value was 0.165; for A61C G69C, 0.0992.
On to G56C A59G, for which the self-cleavage was found to be 0.205.
For G56C A59C the value was 0.154; for U55G U62G, 0; for G56C G69C, 0.12.
As for G56C G69U, the figure is 0.313; as for A61G C66G, 0.329.

These data come from the RNAGym collection of RNA variant scans (doi:10.7554/elife.80360).
